# In the DeepSol protein solubility set:
# Assay: soluble on expression in E. coli; label from the status in PepcDB or PDB records
row,Sequence,soluble on expression in E. coli
1,MAHHHHHHMTQQRGKKAAPSKAAVANASASAPDPPPFFSMGPATFTDAIVITKVISVVLPLRHLRDRNILHTTLLKKLLHRPYEASAEDLAQQQLSQQETDDGGKHDCGAHSALDNLAAPTSSSSSTPYVIVHIKSAEIHADTARQVNPRGDVQVNVMVTLVAARLQHGICAGVSEASPFTSCMQVRVPTVAVSAAVAARGSTDDAATLLLGDALEAGADNVSQEGVKDEKAEPSGGDTALDASVSATTTAAAAKRSCCTGIPADQQLRVTARCLEDEPIVPGQAVLLISEPAAMRCMGIRPPRAAPGSFYLTETTQPSAQFSSGEAEGGPEARPKKRARKSRASAGGTGGATPARRIVSIECAIPKREEDGEGGAAAGPRKGPRKRPHT,not soluble
2,MSVPDKFFGRYQLDKSENFDEFLSSKGVNWFVRQMIKLAGLTKIISQNQEAGKYNMENLTSKKNTNYQAWELGKKFEAPGLDGNQHEITFDFKDEILSEHHIRLNEPETSAETYFYTIDDQNQLVMRMENNGIVCRRWFKRVEQK,not soluble
3,MDPKFLVVEIDSKERALQLVQVMLENGFARFMLLDDLSRHPTLDRIQREEPRISRDELRETASSPVTFETRHSPYPVHEQKVLFPSFSQVSNSMVTSTGIRQEASSVGVGPIEDDDIVEEEEEEDIRLTSKPCVKRRYDHHAEEQEYRDQLMSLLSGEPEIVPIGVNSNDEPSGSNSDSAAKKAKSVGDYHECQLCGVRVKTPRSGRWNLQMHVIALHCVGRQYKCKQCDYLDYRKSTMRKHTVSQHGSDIPPHNITDNIMKAEWHAAMIKCFPEFAHRTGFLN,not soluble
4,MGSDKIHHHHHHMTERIRIGISSCLLGNKVRHDGGHKFDSYIVNVLGRYLDFVPVCPEVECGLPTPREPMRLAGDVHSPRLMTSKTWQDKTEQMQTWADSKVRELEGQGLCGFIFKRGSPSSGMERVKVYPFTDPREVKNVGAPVLKGSGLFARTFMEHFPLLPVEEEGRLNDPVLRENFIERLFVVRRWYDLLESGMAPGAVVEFHTRHKLLLLAHSTQKYREMGRLVAAVREYSPEQFRTEYRRLLMEALSVRATAGRHANVQQHIMGYFRRQLTTDEKQELVEIIDRYRNGLVPLIVPVTMLNHYVRKYGDEYLAGQYYLNPHPVELKLRNHI,not soluble
5,MLVLGSGGARGYAHIGVIEELEARGYEITCIAGCSMGSVIGGIYAAGKLREYREWVESLDYLDVLRLLDVSFRLGAIRGERVFGKIHEILGEVNIEDLSIPYTAVATDLTNQQEIWFQEGCLHQAMRASAAIPSLFTPVMQGSRMLVDGGLLNPLPIVPVV,soluble
6,MLSFRNWWAREDSNPRPPGYEPGALPTELRAHTAIRLYSNKTPLSRSVISMKKDPIKEMLVKYPRILVIKAALKILKDGNKIDRERIEKTIVKIMTKKEGLEHHHHHH,soluble
7,SNTPSAEADWSPGLELHPDYKTWGPEQVCSFLRRGGFEEPVLLKNIRENEITGALLPCLDESRFENLGVSSLGERKKLLSYIQRLVQIHVDTMKVI,soluble
8,MQMMEQFYPKVSIVIPVYNGSDYMREAIDSALGQTYGNIEVIVVNDGSSDGGLTHEIALSYGGNIRYFAKENGGVASALNFAIRMMDGEYFSWLSHDDIYYPNKIETQIGYLAEHDRNAILYSDFELIDCLSKVIKPVNAGEIPPEQFLYNLITIGHLNGCTLLVPKRCFEETGFFDESLRSTQDYALWFTFAQKYRFEQIRKVLVKYRTHSNQGSYVIPTHSQEVNDLHIWFLEEASERGLLPIPDEGASRFFLEVAGIYKKRGIYRAADYSCSMALRHMRDEGGLALLRELPRVAYLKYYFRKKQFKSYLRELRRSTVRRSLLEHHHHHH,not soluble
9,MFALHRHFPNPLPSNPSISRHEQKVADHLASIIKESYYGDTSVEESEYLVQEEYGDWEPEVFEPYDCVLPDQDDVLFGEKAVSREELDKAITFYRSGKIGSRPITTMHHSYRWIRTDAHMNKLRKYEKDKKAFQENVRVRLAQLTQRLYEEVKEKLDNGVNLHDSDLMAMALEINTREMKLQNFKASQSWITRWKQSHRIVSRRVTKFVTRKCLINKDAIKKNADDFVKNARTEISNYHPSMVFNCDQTGIQKELYPARSLAFMGEKTVERLAQSKSSLTHSFTFLPMIFLDGSMGPKAFMVIAEPKGQFPPSRPIPNCPNLEVRAGYKTHIMTKQLMCDFFESCVFIPSVPKKLYIMLDSWPAFKDHTTIKNLVPNGHDVVIRNIPEHTTGMIQPLDVYWNAPWKSLIKKFTAYALRTQTDYVIAQRNNAICMVSVLYHQISAEHFRPFLQHCWKKAGYVGAANTSSTPFLTPAQYCIDHGDTVICYHTGCNHLGFIRCARCKIFPARTGKNFSHILIVENVSFPIQYFFLNIAPFILVIP,not soluble
